Results on 33 molecules are retold here after patent US20260151494A1 (ARO BIOTHERAPEUTICS, published 2026).

Assay [1] has as its target T1, human CD71 extracellular domain (CD71-ECD) (human, UniProt P02786 89-760).
T1 construct: It was captured on a Neutravidin plate; also called hCD71; transferrin receptor 1 ECD
Briefly: capture ELISA, 20 nM antigen on Neutravidin plate, FN3 titrated 250 to 0.3 nM. The procedure:
(§1) Select CD71-binding FN3 domains identified in Example 4 above were chosen to determine their binding to both human and cynomolgus monkey CD71 extracellular domain (CD71-ECD). Capture ELISA using CD71 binding to FN3 domains was performed, with the FN3 domains being titrated from 250 nM to 0.3 nM. 20 nM of antigen was incubated on a Neutravidin® plate for 1 hour at room temperature. The FN3 domains were incubated for 16 hours at room temperature.
(ELISA stands for enzyme-linked immunosorbent assay.)

The target of assay [2] is T2, human CD71 on cells (SKBR3; SW620-rLuc-KRAS) (human, UniProt P02786 1-760). The assay is described as follows: cell-based or functional assay.
Assay [3] deals with T3, cynomolgus monkey CD71 extracellular domain (CD71-ECD) (cynomolgus monkey, UniProt H9EXL1 89-760 (rhesus entry)).
T3 construct: extracellular domain; It was captured on a Neutravidin plate; also called cynomolgus CD71-ECD
The assay is described as follows: capture ELISA, 20 nM antigen on Neutravidin plate, FN3 titrated 250 to 0.3 nM. The procedure: as §1

Assay [4] has as its target T2, human CD71 on cells (SKBR3; …). Briefly: cell-based or functional assay. The source holds these as a separate data set.
Assay [5] has as its target T4, apical domain of CD71 (Screen 3: 'cynomolgus apical domain of human CD71') (cynomolgus (as 'cynomolgus apical …)).
T4 construct: domain: apical domain; Species is told ambiguously
Briefly: primary ELISA screen, RLU on apical domain over RLU on HSA.

The target of assay [6] is T5, human CD71 extracellular domain (human, UniProt P02786 89-760).
T5 construct: also called hCD71; human CD71-ECD
The assay is described as follows: primary ELISA screen, human CD71-ECD.

The target of assay [7] is T4, apical domain of CD71 (Screen 3: …). The assay is described as follows: primary ELISA screen, apical domain of CD71.
Assay [8] concerns the target T5, human CD71 extracellular domain. Briefly: primary ELISA screen, RLU on human CD71-ECD over RLU on HSA.

Substitutions are numbered along the chain they refer to. Like-named read-outs stand apart in the source and are kept apart here.

T3 sequence (chain, as listed by the source): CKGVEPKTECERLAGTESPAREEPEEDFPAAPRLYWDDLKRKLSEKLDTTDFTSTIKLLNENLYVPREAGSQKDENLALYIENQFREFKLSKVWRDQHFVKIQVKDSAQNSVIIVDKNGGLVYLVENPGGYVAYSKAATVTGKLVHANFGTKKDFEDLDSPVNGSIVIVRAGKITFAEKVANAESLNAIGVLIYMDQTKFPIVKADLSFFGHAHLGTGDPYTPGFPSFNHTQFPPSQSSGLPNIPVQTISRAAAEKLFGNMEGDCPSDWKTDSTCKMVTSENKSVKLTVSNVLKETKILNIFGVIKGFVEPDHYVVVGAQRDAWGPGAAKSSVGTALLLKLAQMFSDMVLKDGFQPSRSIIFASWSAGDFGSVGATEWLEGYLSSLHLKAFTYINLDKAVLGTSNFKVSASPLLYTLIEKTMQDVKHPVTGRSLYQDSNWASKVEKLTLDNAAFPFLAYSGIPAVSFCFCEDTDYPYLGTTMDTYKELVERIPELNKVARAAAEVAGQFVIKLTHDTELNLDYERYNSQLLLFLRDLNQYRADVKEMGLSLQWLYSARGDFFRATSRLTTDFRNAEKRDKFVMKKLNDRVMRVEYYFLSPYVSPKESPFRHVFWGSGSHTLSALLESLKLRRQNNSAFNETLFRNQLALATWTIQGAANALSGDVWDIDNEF
T5 sequence (P02786 89-760): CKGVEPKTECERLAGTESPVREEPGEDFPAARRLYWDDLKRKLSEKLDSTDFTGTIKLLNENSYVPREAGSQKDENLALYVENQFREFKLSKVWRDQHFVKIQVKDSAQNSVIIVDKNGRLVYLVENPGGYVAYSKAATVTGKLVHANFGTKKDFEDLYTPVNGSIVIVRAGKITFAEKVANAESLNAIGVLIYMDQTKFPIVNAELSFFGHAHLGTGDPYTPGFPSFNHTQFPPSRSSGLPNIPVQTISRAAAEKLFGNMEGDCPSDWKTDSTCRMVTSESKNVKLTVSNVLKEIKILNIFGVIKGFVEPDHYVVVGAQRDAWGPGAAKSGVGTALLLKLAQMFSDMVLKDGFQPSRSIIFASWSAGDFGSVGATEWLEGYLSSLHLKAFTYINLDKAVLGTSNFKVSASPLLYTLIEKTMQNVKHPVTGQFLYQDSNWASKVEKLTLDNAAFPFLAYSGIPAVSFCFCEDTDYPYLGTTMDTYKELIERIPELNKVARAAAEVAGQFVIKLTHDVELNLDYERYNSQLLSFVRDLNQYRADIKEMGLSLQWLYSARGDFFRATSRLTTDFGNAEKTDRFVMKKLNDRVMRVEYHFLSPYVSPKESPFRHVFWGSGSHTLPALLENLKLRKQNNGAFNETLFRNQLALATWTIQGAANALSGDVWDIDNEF
T1 sequence (P02786 89-760): as above
T2 sequence (P02786 whole entry, the tested form may be a part): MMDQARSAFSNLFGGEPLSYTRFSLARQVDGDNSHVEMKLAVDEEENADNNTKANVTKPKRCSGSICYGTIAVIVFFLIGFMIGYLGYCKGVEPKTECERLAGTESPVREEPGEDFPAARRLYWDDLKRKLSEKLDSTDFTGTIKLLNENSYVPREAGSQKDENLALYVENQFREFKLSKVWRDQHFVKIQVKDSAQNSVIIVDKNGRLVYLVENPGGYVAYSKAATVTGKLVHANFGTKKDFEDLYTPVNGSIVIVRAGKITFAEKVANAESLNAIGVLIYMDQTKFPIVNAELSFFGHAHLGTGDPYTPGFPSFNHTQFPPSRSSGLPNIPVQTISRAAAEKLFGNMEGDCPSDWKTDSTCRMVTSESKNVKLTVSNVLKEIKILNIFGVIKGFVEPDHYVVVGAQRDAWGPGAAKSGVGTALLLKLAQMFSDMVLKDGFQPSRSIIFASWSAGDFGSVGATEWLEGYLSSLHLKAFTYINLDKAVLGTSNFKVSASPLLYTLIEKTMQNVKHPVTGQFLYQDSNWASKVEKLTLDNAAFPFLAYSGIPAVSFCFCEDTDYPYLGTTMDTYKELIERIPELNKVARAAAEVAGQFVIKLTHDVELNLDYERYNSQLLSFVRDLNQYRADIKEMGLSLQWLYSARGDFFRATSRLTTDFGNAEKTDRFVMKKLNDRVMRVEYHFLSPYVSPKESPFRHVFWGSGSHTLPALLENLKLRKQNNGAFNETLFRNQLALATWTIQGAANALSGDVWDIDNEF

B1: CD71-binding FN3 domain of SEQ ID NO: 540 (designed binder)
chain: MLPAPKNLVVSRVTEDSARLSWTAPDAAFDSFYIAYAEPRPDGEAIILVVPGSERSYDLTGLKPGTEYSVLIHGVKGGLLSSPLDAGFTT
notes: Tencon-based FN3 domain
For the molecule B1, the concentration giving a half-maximal response (EC50) – broadly, the concentration needed to bring the measured effect to its halfway point – in assay [1] amounted to 10 nM. The “CTG EC50 (CellTiter-Glo luminescent assay, SKBR3 cells, 72 h)” value (from here on “CTG EC50”) in assay [2] worked out at 14.4 nM.

B2: CD71-binding FN3 domain of SEQ ID NO: 472 (designed binder)
chain: MLPAPKNLVVSRVTEDSARLSWTAPDAAFDSFFIGYLEPQPPGEAIELYVPGSERSYDLTGLKPGTEYNVTIQGVKGGFPSLPLVATFTT
notes: Tencon-based FN3 domain
Take B2: the values for the EC50 in assay [1] and in assay [3] were 0.4 nM and 0.7 nM, respectively. Besides, in assay [2], the “CTG EC50” value amounted to 0.3 nM.

B3: CD71-binding FN3 domain of SEQ ID NO: 516 (designed binder)
chain: B2 chain with E47S, Y49W, L82S, T87Y
notes: Tencon-based FN3 domain
On to B3, for which the EC50 turned out to be 2.2 nM in assay [1] and 10.6 nM in assay [3]. For the same molecule, in assay [2], the “CTG EC50” value turned out to be 8.4 nM.

B4: CD71-binding FN3 domain of SEQ ID NO: 465 (designed binder)
chain: B2 chain with E47D, L82E, V85W, T87D
notes: Tencon-based FN3 domain
On to B4, for which the EC50 in assay [1] turned out to be 2.5 nM; in assay [3] it was 24.9 nM. Moreover, the “CTG EC50” value in assay [2] came out at 1.2 nM.

B5: CD71-binding FN3 domain of SEQ ID NO: 496 (designed binder)
chain: B2 chain with E47I, Y49W, L82V, V85I, T87Q
notes: Tencon-based FN3 domain
On to B5, for which the concentration for a half-maximal effect (EC50) in assay [1] is 3.9 nM; in assay [3], 10.6 nM. For the same molecule, the “CTG EC50” value in assay [2] was found to be 3 nM.

B6: CD71-binding FN3 domain of SEQ ID NO: 508 (designed binder)
chain: B2 chain with E47T, Y49S, L82E, V85I, T87I
notes: Tencon-based FN3 domain
For the molecule B6, the concentration giving a half-maximal response (EC50) in assay [1] came to 5.5 nM; in assay [3], 14.2 nM. The “CTG EC50” value in assay [2] stood at 1.5 nM.

B7: CD71-binding FN3 domain of SEQ ID NO: 478 (designed binder)
chain: B2 chain with E47H, L82V, V85I, T87K
notes: Tencon-based FN3 domain
Consider B7, for which the half-maximal effective concentration (EC50) in assay [1] turned out to be 0.4 nM; in assay [3] it was 0.6 nM. Further, the “CTG EC50” value in assay [2] was found to be 0.6 nM.

B8: CD71-binding FN3 domain of SEQ ID NO: 483 (designed binder)
chain: B2 chain with E47T, Y49V, L82D, T87S
notes: Tencon-based FN3 domain
For B8, the concentration for a half-maximal effect (EC50) was found to be 14.1 nM in assay [1] and 23 nM in assay [3]. Besides, in assay [2], the “CTG EC50” value was determined as 9.8 nM.

B9: CD71-binding FN3 domain of SEQ ID NO: 373 (designed binder)
chain: B2 chain with E47S, Y49F, L82D, T87S
notes: Tencon-based FN3 domain
In the case of B9, the results for the EC50 in assay [1] and in assay [3] were 0.91 nM and 1.6 nM, respectively. For the same molecule, the “CTG EC50” value in assay [2] is 0.4 nM.

B10: CD71-binding FN3 domain of SEQ ID NO: 447 (designed binder)
chain: B2 chain with E47Y, L82Y, V85T, T87Q
notes: Tencon-based FN3 domain
Consider B10, for which the EC50 was 3.2 nM in assay [1] and 5 nM in assay [3]. The “CTG EC50” value in assay [2] came out at 71.5 nM.

B11: CD71-binding FN3 domain of SEQ ID NO: 473 (designed binder)
chain: B2 chain with E47D, Y49W, V85S, T87S
notes: Tencon-based FN3 domain
Regarding B11, the figures for the 50% effective concentration (EC50) in assay [1] and in assay [3] were 4.3 nM and 34.9 nM, respectively. In addition, the “CTG EC50” value in assay [2] is 12.6 nM.

B12: CD71-binding FN3 domain of SEQ ID NO: 476 (designed binder)
chain: B2 chain with E47H, Y49Q, L82I, V85I, T87V
notes: Tencon-based FN3 domain
As for B12, the figures for the EC50 in assay [1] and in assay [3] were 2.1 nM and 17.7 nM, respectively. For the same molecule, the “CTG EC50” value in assay [2] is 2.7 nM.

B13: CD71-binding FN3 domain of SEQ ID NO: 400 (designed binder)
chain: B2 chain with E47H, Y49F, L82G, V85H
notes: Tencon-based FN3 domain
As for B13, the EC50 in assay [1] turned out to be 2.8 nM; in assay [3], 4.3 nM. In addition, the “CTG EC50” value in assay [2] worked out at 2.9 nM.

B14: CD71-binding FN3 domain of SEQ ID NO: 529 (designed binder)
chain: B2 chain with E47D, V85Q, T87H
notes: Tencon-based FN3 domain
Take B14: the concentration for a half-maximal effect (EC50) in assay [1] stood at 2.3 nM; in assay [3], 2.7 nM. Also, the “CTG EC50” value in assay [2] was 7 nM.

B15: CD71-binding FN3 domain of SEQ ID NO: 234 (designed binder)
chain: MSLPAPKNLVVSRVTEDSARLSWTAPDAAFDSFFIGYLEPQPPGEAIALYVPGSERSYDLTGLKPGTEYNVTIQGVKGGFPSEPLVAHFTT
B15: in assay [4], the “CTG EC50” value turned out to be 0.07 nM.

B16: CD71-binding FN3 domain of SEQ ID NO: 264 (designed binder)
chain: B15 chain with A87V
For B16, the “CTG EC50” value in assay [4] stood at 0.16 nM.

B17: CD71-binding FN3 domain of SEQ ID NO: 281 (designed binder)
chain: B15 chain with V86I, H88N
Consider B17, for which the “CTG EC50” value in assay [4] was 0.06 nM.

B18: CD71-binding FN3 domain of SEQ ID NO: 333 (designed binder)
chain: B15 chain with K7E, E83L, H88T
As for B18, in assay [4], the “CTG EC50” value was 0.57 nM.

B19: CD71-binding FN3 domain of SEQ ID NO: 290 (designed binder)
chain: B15 chain with A48H, H88T
In the case of B19, the “CTG EC50” value in assay [4] amounted to 0.01 nM.

B20: CD71-binding FN3 domain of SEQ ID NO: 331 (designed binder)
chain: B15 chain with A48H, G78V, V86I, H88N
With B20, the “CTG EC50” value in assay [4] worked out at 0.05 nM.

B21: CD71-binding FN3 domain of SEQ ID NO: 335 (designed binder)
chain: B15 chain with A48D, E83L, H88T
notes: not shown: C-terminal poly-histidine tag added to each FN3 domain
Regarding B21, the “Apical domain:HSA” value in assay [5] was found to be 103 ratio. The RLU in assay [6] stood at 5.34e+06 RLU; in assay [7], 5.9e+06 RLU. Also, the “hCD71:HSA” value in assay [8] came to 93 ratio.

B22: CD71-binding FN3 domain of SEQ ID NO: 972 (designed binder)
chain: B15 chain with V76A, A87V
As for B22, the “CTG EC50” value in assay [4] stood at 0.04 nM.

B23: CD71-binding FN3 domain of SEQ ID NO: 973 (designed binder)
chain: B15 chain with A48H, V71G, G78V, V86I, H88N
Turning to B23, the “CTG EC50” value in assay [4] was 0.07 nM.

B24: CD71-binding FN3 domain of SEQ ID NO: 270 (designed binder)
chain: B15 chain with A48H, V86I, H88N, F89S
Regarding B24, in assay [4], the “CTG EC50” value was 0.57 nM.

B25: CD71-binding FN3 domain of SEQ ID NO: 335 (designed binder)
chain: B15 chain with A48D, E83L, H88T
For B25, in assay [4], the “CTG EC50” value amounted to 0.04 nM.

B26: CD71-binding FN3 domain of SEQ ID NO: 343 (designed binder)
chain: B15 chain with Y50W, H88T
For the molecule B26, the “CTG EC50” value in assay [4] is 0.21 nM.

B27: CD71-binding FN3 domain of SEQ ID NO: 974 (designed binder)
chain: B15 chain with E83L, H88T
Turning to B27, in assay [4], the “CTG EC50” value worked out at 0.15 nM.

B28: CD71-binding FN3 domain of SEQ ID NO: 341 (designed binder)
chain: B15 chain with A48E, E83L, H88I
B28: the “CTG EC50” value in assay [4] was 0.11 nM.

B29: CD71-binding FN3 domain of SEQ ID NO: 343 (designed binder)
chain: B15 chain with Y50W, H88T
notes: as for B21
Turning to B29, the “Apical domain:HSA” value in assay [5] was 178 ratio. In addition, the RLU in assay [6] is 5.25e+06 RLU; in assay [7], 5.42e+06 RLU. For the same molecule, the “hCD71:HSA” value in assay [8] is 172 ratio.

B30: CD71-binding FN3 domain of SEQ ID NO: 337 (designed binder)
chain: B15 chain with A48H, E83I, V86I, H88S
notes: as for B21
Take B30: in assay [5], the “Apical domain:HSA” value is 385 ratio. Further, the RLU in assay [6] worked out at 5.28e+06 RLU; in assay [7], 6.62e+06 RLU. Also, the “hCD71:HSA” value in assay [8] stood at 307 ratio.

B31: CD71-binding FN3 domain of SEQ ID NO: 342 (designed binder)
chain: B15 chain with A48V, Y50T, V86I, H88N
notes: as for B21
Consider B31, for which the “Apical domain:HSA” value in assay [5] stood at 13 ratio. For the same molecule, the results for the RLU in assay [6] and in assay [7] were 4.44e+06 RLU and 5.41e+06 RLU, respectively. Further, the “hCD71:HSA” value in assay [8] turned out to be 10 ratio.

B32: CD71-binding FN3 domain of SEQ ID NO: 341 (designed binder)
chain: B15 chain with A48E, E83L, H88I
notes: as for B21
As to B32, the “Apical domain:HSA” value in assay [5] turned out to be 92 ratio. Besides, the RLU worked out at 5.35e+06 RLU in assay [6] and 5.31e+06 RLU in assay [7]. Besides, the “hCD71:HSA” value in assay [8] came out at 92 ratio.

B33: CD71-binding FN3 domain of SEQ ID NO: 334 (designed binder)
chain: MSLPAPKNLVVSRVTEDSARLSWTAPDAAFDSFEIAYQELSLWGEAIVLTVPGSERSYDLTGLKPGTEYWVQIGGVKGGIWSSPLVASFTT
notes: as for B21
Regarding B33, in assay [5], the “Apical domain:HSA” value came to 378 ratio. Moreover, the values for the RLU in assay [6] and in assay [7] were 2.7e+06 RLU and 5.45e+06 RLU, respectively. In addition, the “hCD71:HSA” value in assay [8] is 188 ratio.
